Laboratory results taken from PMC7892883, “Transcription activation by a sliding clamp” (Nature Communications, 2021).

B1: T4 late promoter EMSA scaffold (dsDNA)
DNA 1: CTAATAAAGAGCTCAGCACTATTACTGAGAGTATAAATACTCCTGATACTGAAGCAGCCGGACT
DNA 2: AGTCCGGCTGCTTCAGTATCAGGAGTATTTATACTCTCAGTAATAGTGCTGAGCTCTTTATTAG
B2: bacteriophage T4 gp55 (promoter specificity factor) (natural protein, UniProt P04524 1-185, looked up)
chain: MSETKPKYNYVNNKELLQAIIDWKTELANNKDPNKVVRQNDTIGLAIMLIAEGLSKRFNFSGYTQSWKQEMIADGIEASIKGLHNFDETKYKNPHAYITQACFNAFVQRIKKERKEVAKKYSYFVHNVYDSRDDDMVALVDETFIQDIYDKMTHYEESTYRTPGAEKKSVVDDSPSLDFLYEAND
notes: also called full-length gp55; wild-type protein
B3: bacteriophage T4 gp33 (coactivator) (natural protein)
chain: MTQFSLNDIRPVDETGLSEKELSIKKEKDEIAKLLDRQENGFIIEKMVEEFGMSYLEATTAFLEENSIPETQFAKFIPSGIIEKIQSEAIDENLLRPSVVRCEKTNTLDFLL
notes: source: E. coli BL21(DE3), pET28a-NH-gp33, purified (Ni-NTA, Mono Q, Superdex 200)

Legend:
[1] = target: E. coli RNA polymerase core;gp55 H154X (C-terminal region truncated) (Escherichia coli;bacteriophage T4, UniProt P0A7Z4;P0A8V2;P0A8T7;P0A800;P04524 1-329;1-1342;1-1407;1-91;1-153, |); assay: EMSA; heparin 0.1 mg/ml challenge; forms RPo as effectively as full-length gp55; EMSA: 0.4 uM gp55, 0.2 uM RNAP, 0.2 uM DNA in 10 mM HEPES pH 7.5, 50 mM KCl, 5% glycerol, 0.1 mg/ml heparin; DNA 20 min at 37 C, heparin 1 min at 22 C; 5% PAGE; conditions: protein: recombinant;recombinant; tags: beta' C-terminal His tag (stated for pull-down);none stated; chain copies: 2;1;1;1;1; label: none (gel stained); blunt
[2] = target: T1, E. coli RNA polymerase β′ subunit (E. coli, UniProt P0A8T7 1-1407); assay: cryo-EM structure; 0.8 uM E. coli RNAP incubated with 0.8 uM gp55, 0.8 uM gp33 and 0.8 uM gp45 homotrimer 10 min on ice, then with nucleic acid scaffold, gp44/gp62 complex, gp32 and dATP 20 min at 30 °C in transcription buffer; 3D classification gave RPo-gp55 (3.6 Å) and TAC-gp45 (4.5 Å); promoter DNA present; conditions: both partners purified
T1 construct: RNA polymerase β′ subunit, E. coli; Stood in the structures as a subunit of RNAP core; also called RNAP β′ subunit; source: E. coli BL21(DE3) with plasmid pIA900, purified as part of RNAP core enzyme

[3] = target: T2, E. coli RNA polymerase β subunit (E. coli, UniProt P0A8V2 1-1342); assay: as above; conditions: both partners purified
T2 construct: RNA polymerase β subunit, E. coli; holds the β flap with the flap tip helix (FTH); Stood in the structures as a subunit of RNAP core; also called RNAP β subunit; source: E. coli BL21(DE3) with plasmid pIA900, purified as part of RNAP core enzyme

| Binder | binding result [1] | binding result [2] | binding result [3] |
| --- | --- | --- | --- |
| B1 | binds | – | – |
| B2 | – | binds | – |
| B3 | – | binds | binds |
